# Target: GST-PLIED-M1 (E. coli) (UniProt P0ABQ4)
substance,measurement,value
Recombinant human MDM2 (17-125) (from UniProt Q00987 17-125) (domain or fragment),"acetylation yield of MDM2 K51 (LC-MS/MS) with MDM2 (1.4 μM), PLIED-M1 (4 μM), TMP-BAHA 1 (10 μM) and acetyl donor 2 (100 μM), 37 °C, 5 h",70%

# From paper PMC10683481
